Results from PMC4498904, “Mutagenesis Study Reveals the Rim of Catalytic Entry Site of HDAC4 and -5 as the Major Binding Surface of SMRT Corepressor” (PLoS ONE, 2015).

Experiments:
[1] = biological target: T1, KGN-SRD3c (N-terminal portion of Kusabira Green protein fused with SRD3c) (human, UniProt Q9Y618 1281-1504); assay: split reporter (BiFC, NanoBiT); quantitative BiFC (Kusabira Green, Fluo-Chase kit): KGN-SRD3c and KGC-HDAC coexpressed in HEK293, 48 h; fluorescence of cell lysates by spectrophotometer (ex 494 nm, em 538 nm); conditions: partners not purified
T1 construct: human SMRT, SRD3c region, amino acid 1281 to 1504; The methods say that KGN-MC-SRD3c was made in the KGC-MC vector; also called KGN-MC-SRD3c; source: HEK293, transfected, in cells or lysate
T1 sequence (Q9Y618 1281-1504): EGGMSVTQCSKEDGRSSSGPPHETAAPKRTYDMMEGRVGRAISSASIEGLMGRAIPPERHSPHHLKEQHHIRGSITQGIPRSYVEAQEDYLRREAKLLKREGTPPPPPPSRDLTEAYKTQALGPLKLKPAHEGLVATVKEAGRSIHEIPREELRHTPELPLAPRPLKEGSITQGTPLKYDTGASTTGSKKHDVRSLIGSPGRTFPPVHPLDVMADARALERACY

[2] = biological target: HA-HDAC4c, wild type, expressed in HEK293 cells (human, UniProt P56524 650-1055); assay: cell-based or functional assay

Binder	fold increase of the BiFC fluorescent signal over the KGC empty vector [1] [fold]	fold repression of a Gal4-tk-luciferase reporter by Gal4N-fused wild-type HDAC4c (50 and 100 ng plasmid) in HEK293 cells; endogenous SMRT-HDAC3 complex [2] [fold]
KGC-HDAC4c (C-terminal portion of Kusabira Green protein fused with HDAC4c), wild type (domain or fragment, human, UniProt P56524 650-1055, looked up, also called KGC-MC-HDAC4c; source: HEK293, transfected, in cells or lysate) PRFTTGLVYDTLMLKHQCTCGSSSSHPEHAGRIQSIWSRLQETGLRGKCECIRGRKATLEELQTVHSEAHTLLYGTNPLNRQKLDSKKLLGSLASVFVRLPCGGVGVDSDTIWNEVHSAGAARLAVGCVVELVFKVATGELKNGFAVVRPPGHHAEESTPMGFCYFNSVAVAAKLLQQRLSVSKILIVDWDVHHGNGTQQAFYSDPSVLYMSLHRYDDGNFFPGSGAPDEVGTGPGVGFNVNMAFTGGLDPPMGDAEYLAAFRTVVMPIASEFAPDVVLVSSGFDAVEGHPTPLGGYNLSARCFGYLTKQLMGLAGGRIVLALEGGHDLTAICDASEACVSALLGNELDPLPEKVLQQRPNANAVRSMEKVMEIHSKYWRCLQRTTSTAGRSLIEAQTCENEEAET	~2	–
Human HDAC3 (enzyme, UniProt O15379 1-428, looked up) MAKTVAYFYDPDVGNFHYGAGHPMKPHRLALTHSLVLHYGLYKKMIVFKPYQASQHDMCRFHSEDYIDFLQRVSPTNMQGFTKSLNAFNVGDDCPVFPGLFEFCSRYTGASLQGATQLNNKICDIAINWAGGLHHAKKFEASGFCYVNDIVIGILELLKYHPRVLYIDIDIHHGDGVQEAFYLTDRVMTVSFHKYGNYFFPGTGDMYEVGAESGRYYCLNVPLRDGIDDQSYKHLFQPVINQVVDFYQPTCIVLQCGADSLGCDRLGCFNLSIRGHGECVEYVKSFNIPLLVLGGGGYTVRNVARCWTYETSLLVEEAISEELPYSEYFEYFAPDFTLHPDVSTRIENQNSRQYLDQIRQTIFENLKMLNHAPSVQIHDVPADLLTYDRTDEADAEERGPEENYSRPEAPNEFYDGDHDNDKESDVEI	–	7
KGC-HDAC5c (C-terminal portion of Kusabira Green protein fused with HDAC5c), wild type (domain or fragment, human, UniProt Q9UQL6 680-1087, looked up, human HDAC5 catalytic domain, amino acids 680 to 1087; also called KGC-MC-HDAC5c; source: HEK293, transfected, in cells or lysate) LFTTGVVYDTFMLKHQCMCGNTHVHPEHAGRIQSIWSRLQETGLLSKCERIRGRKATLDEIQTVHSEYHTLLYGTSPLNRQKLDSKKLLGPISQKMYAVLPCGGIGVDSDTVWNEMHSSSAVRMAVGCLLELAFKVAAGELKNGFAIIRPPGHHAEESTAMGFCFFNSVAITAKLLQQKLNVGKVLIVDWDIHHGNGTQQAFYNDPSVLYISLHRYDNGNFFPGSGAPEEVGGGPGVGYNVNVAWTGGVDPPIGDVEYLTAFRTVVMPIAHEFSPDVVLVSAGFDAVEGHLSPLGGYSVTARCFGHLTRQLMTLAGGRVVLALEGGHDLTAICDASEACVSALLSVELQPLDEAVLQQKPNINAVATLEKVIEIQSKHWSCVQKFAAGLGRSLREAQAGETEEAETVS	~2	–
